# Patent publication US9193790B2, “Use of antagonists of the interaction between HIV GP120 and A4B7 integrin” (priority 2006, dated 2015)
# “Also recorded” adds a separate entry of the source. Ends that are not written are not given here.
# Columns and labels:
# [1] = molecular target: T1, α4β7 integrin on CD8+ T-cells (Homo sapiens, UniProt P13612+P26010); test: Flow cytometry: gp120 binding to RA-cultured CD8+ T-cells; settings: peptide at 0.19 μM-12.5 μM (FIG. 8a)
# T1 construct: Purified CD4+ T cells and NK cells were obtained by negative selection using magnetic beads; On NKs β7 integrin pairs with α4 integrin (CD49d); endogenous in cells; host or cells: freshly isolated NK cells; OKT3/IL2/retinoic acid-cultured PBMCs (CD8-depleted, i.e. CD4+ T cells) and CD8+ T cells from healthy donors
# T1 sequence (P13612 34-1032): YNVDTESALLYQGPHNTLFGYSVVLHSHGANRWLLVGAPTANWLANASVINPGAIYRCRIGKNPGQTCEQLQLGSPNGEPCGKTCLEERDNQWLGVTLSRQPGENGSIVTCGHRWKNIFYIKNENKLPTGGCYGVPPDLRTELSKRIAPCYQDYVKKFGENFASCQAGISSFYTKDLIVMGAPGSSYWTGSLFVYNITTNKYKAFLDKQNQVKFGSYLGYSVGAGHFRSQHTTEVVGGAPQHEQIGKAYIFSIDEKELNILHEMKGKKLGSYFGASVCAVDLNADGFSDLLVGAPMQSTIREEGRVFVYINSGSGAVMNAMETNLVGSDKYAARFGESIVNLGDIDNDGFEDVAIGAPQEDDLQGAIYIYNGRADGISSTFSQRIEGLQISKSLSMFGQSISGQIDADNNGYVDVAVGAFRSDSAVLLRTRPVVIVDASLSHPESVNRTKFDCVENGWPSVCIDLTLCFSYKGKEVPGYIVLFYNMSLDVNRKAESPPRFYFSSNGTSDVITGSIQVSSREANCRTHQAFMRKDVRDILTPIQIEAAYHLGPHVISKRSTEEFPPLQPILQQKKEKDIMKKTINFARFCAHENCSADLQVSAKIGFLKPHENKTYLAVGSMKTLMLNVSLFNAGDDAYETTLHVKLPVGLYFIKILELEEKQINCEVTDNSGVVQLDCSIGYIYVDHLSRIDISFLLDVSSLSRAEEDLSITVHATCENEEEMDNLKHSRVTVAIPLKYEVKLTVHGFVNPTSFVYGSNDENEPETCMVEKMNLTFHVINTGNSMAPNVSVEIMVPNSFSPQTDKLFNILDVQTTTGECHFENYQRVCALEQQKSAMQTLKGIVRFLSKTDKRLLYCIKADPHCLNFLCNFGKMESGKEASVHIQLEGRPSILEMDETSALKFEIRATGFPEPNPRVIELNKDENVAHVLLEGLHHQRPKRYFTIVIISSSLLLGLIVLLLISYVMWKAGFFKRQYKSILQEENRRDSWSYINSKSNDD
# T1 sequence (P26010 20-798): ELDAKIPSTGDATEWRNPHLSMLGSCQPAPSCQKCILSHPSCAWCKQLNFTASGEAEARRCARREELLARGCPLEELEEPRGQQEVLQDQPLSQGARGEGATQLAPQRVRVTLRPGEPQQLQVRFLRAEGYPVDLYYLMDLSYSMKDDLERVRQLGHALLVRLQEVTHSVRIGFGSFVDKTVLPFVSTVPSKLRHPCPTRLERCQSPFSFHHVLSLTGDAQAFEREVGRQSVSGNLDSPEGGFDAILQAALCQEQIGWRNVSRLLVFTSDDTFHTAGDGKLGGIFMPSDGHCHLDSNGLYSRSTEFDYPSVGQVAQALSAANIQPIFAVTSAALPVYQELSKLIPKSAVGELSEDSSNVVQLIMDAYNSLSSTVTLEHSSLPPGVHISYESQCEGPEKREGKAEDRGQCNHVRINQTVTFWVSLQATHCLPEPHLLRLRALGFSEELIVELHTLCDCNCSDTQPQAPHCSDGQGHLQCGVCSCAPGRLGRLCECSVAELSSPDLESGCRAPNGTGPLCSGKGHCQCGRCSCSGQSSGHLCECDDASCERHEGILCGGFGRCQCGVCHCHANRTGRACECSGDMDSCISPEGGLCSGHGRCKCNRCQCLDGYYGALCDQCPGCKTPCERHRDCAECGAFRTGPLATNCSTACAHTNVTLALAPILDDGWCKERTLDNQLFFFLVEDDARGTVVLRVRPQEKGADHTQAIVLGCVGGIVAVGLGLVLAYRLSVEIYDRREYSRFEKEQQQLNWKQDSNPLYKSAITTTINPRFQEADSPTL
# Experimental: Cells and Reagents. Freshly isolated PBMCs were obtained from healthy donors and separated by Ficoll-Hypaque. Purified CD4+ T cells and NK cells were obtained by negative selection using magnetic beads (StemCell Technologies, Vancouver, BC). Cultured PBMCs were activated with OKT3, IL2 (201 U/ml) and retinoic acid (RA, 10 nM) unless otherwise specified. RA was obtained from Sigma Chemical (St. Louis, Mo.). Recombinant Ig-fusion proteins (MadCAM, VCAM-1, E-cadherin) were purchased from R&D Systems (Minneapolis, Minn.). Integrin antibodies were obtained from Serotech Laboratories Ltd. (Raleigh, N.C.) and Chemicon (Temecula, Calif.), while FITC, PE, APC surface marker antibodies were acquired from Beckton Dickinson (San Diego, Calif.). Cyclic peptides CWLDVC (SEQ ID NO:1) and the scrambled control peptide CDLWC (SEQ ID NO:31) were obtained from NeoMPS (San Diego, Calif.). Recombinant gp120s were produced and purified as described in supplemental methods, using hollow-fiber bioreactors (Fibercell Systems, Frederick, Md.). Integrin cDNA expression vectors were acquired from ORIGENE™ (ORIGENE is a trademark of OriGene Technologies, Inc., Rockville, Md.). […]
# Recombinant gp120 protein labeling. […] Biotin incorporation was determined by reacting gp120s with 4′-hydroxyazobenzene-2-carboxylic acid-avidin conjugates (HABA) per the manufacturer's instructions (Pierce Chemical, Rockford, Ill.). […]
# α4β7 integrin = molecular target: T2, α4β7 integrin (Homo sapiens, UniProt P13612+P26010); settings: fibronectin, VCAM, MadCAM (Vanderslice et al. 1997); cited from earlier work
# T2 sequence (P13612 34-1032): T1 sequence (P13612 34-1032)
# T2 sequence (P26010 20-798): T1 sequence (P26010 20-798)
substance,measurement,setting,value
"CWLDVC (also: cyclic, kind of ring not given here)",inhibition of gp120-binding to RA cultured CD8+ T-cells by cyclic peptide,[1],inhibited by CWLDVC in a dose dependent manner
same,inhibition of binding of natural ligands to α4 / α4β7 integrin,α4β7 integrin,"inhibit α4 integrin subunit binding to fibronectin, VCAM and MadCAM; also recorded: inhibit binding of all three natural ligands"
